{"source": "paper PMC6066304", "molecular_target": "Arabidopsis thaliana plant cysteine oxidase 5 (Arabidopsis thaliana) (UniProt Q9LXT4)", "sequence (Q9LXT4 whole entry)": "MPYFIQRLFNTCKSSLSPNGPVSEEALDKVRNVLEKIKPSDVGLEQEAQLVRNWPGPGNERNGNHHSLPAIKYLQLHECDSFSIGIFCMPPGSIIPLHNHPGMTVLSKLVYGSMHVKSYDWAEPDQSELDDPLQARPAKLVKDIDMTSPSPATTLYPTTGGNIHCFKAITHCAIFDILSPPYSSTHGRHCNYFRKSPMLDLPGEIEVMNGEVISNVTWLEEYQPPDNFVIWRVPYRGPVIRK"}
{"substance": "AtRAP2(2–15), 14-amino acid peptide corresponding to the methionine excised N terminus of AtRAP2.2 and AtRAP2.12", "values": [{"measurement": "Km for AtRAP2(2–15); initial rates of N-terminal cysteine oxidation by LC-MS, Michaelis–Menten fit with substrate inhibition, atmospheric O2, pH 8.0, 25 °C", "result": 0.16, "unit": "mM"}]}
